Experimental findings from article PMC11813800, “A concept of natural genome reconstruction.Part 2. Effect of extracellular double-stranded DNA fragments on hematopoietic stem cells” are described below.

The target of data set [1] is CD34 (UniProt P28906 32-290). Description: EMSA; 10 mM PBS buffer, 37 °C, various ratios and times; native PAGE (6 % or 10 % tris-borate); pH not given. The settings on record: label: P32; blunt. (In EMSA bound probe runs differently from free probe, usually more slowly.)
For data set [2], the target named is T1, SLAMF5 (CD84) (UniProt Q9UIB8 22-225).
T1 sequence: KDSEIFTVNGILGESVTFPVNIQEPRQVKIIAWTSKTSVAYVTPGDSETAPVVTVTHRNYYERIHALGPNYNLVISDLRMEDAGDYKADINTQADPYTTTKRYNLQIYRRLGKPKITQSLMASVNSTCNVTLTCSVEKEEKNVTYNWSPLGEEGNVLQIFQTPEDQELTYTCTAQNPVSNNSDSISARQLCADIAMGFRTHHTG
Described as above. As to conditions: label: P32; blunt.

CD34, sequence (P28906 32-290): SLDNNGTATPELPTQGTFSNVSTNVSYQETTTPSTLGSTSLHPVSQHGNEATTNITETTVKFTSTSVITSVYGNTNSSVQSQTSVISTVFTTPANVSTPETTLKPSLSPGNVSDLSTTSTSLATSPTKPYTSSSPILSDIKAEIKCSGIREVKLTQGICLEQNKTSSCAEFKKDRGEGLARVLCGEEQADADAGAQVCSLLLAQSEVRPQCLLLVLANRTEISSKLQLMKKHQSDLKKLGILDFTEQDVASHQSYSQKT

B1: (TTAGGG)9 telomeric repeat, 54 bp (dsDNA)
DNA 1: TTAGGGTTAGGGTTAGGGTTAGGGTTAGGGTTAGGGTTAGGGTTAGGGTTAGGG
DNA 2: CCCTAACCCTAACCCTAACCCTAACCCTAACCCTAACCCTAACCCTAACCCTAA
As for B1, the binding result in data set [1] and in data set [2] was “binds” each time.
